Molecular target: T1, recombinant human ACE2 (hACE2-Fc, InvivoGen) (human, UniProt Q9BYF1 18-740)
T1 construct: not shown: Fc part of a bought reagent
Experiment: ELISA, LuS-Tag coated, hACE2-Fc titrated

T1 sequence (Q9BYF1 18-740): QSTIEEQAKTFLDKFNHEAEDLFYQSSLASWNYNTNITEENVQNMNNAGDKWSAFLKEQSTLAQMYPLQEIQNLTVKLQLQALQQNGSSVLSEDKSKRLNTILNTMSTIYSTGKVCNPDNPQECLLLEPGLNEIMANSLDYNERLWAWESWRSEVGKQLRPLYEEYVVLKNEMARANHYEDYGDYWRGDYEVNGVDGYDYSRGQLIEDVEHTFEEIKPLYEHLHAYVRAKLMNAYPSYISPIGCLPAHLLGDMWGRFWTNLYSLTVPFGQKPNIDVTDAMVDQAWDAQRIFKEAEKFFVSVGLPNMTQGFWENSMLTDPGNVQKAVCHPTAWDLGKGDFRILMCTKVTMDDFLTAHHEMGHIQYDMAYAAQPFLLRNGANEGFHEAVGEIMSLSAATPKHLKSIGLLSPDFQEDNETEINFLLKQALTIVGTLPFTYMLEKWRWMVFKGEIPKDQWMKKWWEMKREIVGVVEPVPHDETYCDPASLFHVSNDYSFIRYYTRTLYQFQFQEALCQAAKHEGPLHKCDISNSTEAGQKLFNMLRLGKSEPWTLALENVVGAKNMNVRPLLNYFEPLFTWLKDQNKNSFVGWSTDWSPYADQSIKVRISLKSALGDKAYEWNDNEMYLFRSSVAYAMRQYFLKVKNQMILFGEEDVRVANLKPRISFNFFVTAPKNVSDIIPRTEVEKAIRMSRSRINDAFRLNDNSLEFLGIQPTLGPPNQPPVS

B1: Lumazine synthase expressing SpyTag (LuS-Tag) (other)
chain: AHIVMVDAYKPTKMQIYEGKLTAEGLRFGIVASRFNHALVDRLVEGAIDCIVRHGGREEDITLVRVPGSWEIPVAAGELARKENIDAVIAIGVLIRGATPHFDYIASEVSKGLANLSLELRKPITFGVITADTLEQAIERAGTKHGNKGWEAALSAIEMANLFKSLR
  binding result: no binding (tested: starting at 10 µg/ml)

Source: patent US20240115693A1 (CHILDREN S MEDICAL CENTER, published 2024)
